# Assay results as given in patent publication US20180271864.
# Target: T1, Flag-tagged human PZR (UniProt O95297)
# T1 sequence: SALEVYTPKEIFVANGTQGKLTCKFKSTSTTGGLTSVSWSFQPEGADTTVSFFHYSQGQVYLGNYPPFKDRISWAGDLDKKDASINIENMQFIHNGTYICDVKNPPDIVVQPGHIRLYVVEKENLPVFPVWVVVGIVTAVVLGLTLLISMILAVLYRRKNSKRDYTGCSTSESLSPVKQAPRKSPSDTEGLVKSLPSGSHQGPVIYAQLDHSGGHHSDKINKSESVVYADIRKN
substance,measurement,value
Src recombinant protein,"in vitro Src kinase assay, immunoblot with anti-pPZR (Y241 or Y263) antibodies",These results implicated c-Src as directly phosphorylating PZR at Shp2 binding sites
